Reference: publication PMC5433351

Columns and labels:
Format in all cases: biochemical, Metallosphaera sedula
[1] = substrate: NC(=O)C1=CN([C@@H]2O[C@H](COP(=O)(O)OP(=O)(O)OC[C@H]3O[C@@H](n4cnc5c(N)ncnc54)[C@H](OP(=O)(O)O)[C@@H]3O)[C@@H](O)[C@H]2O)C=CC1; assay: NADPH consumption, spectrophotometric; settings: succinyl-CoA as substrate, pH 6.5, 65°C, varied: cofactor
[2] = substrate: CC(C)(COP(=O)(O)OP(=O)(O)OC[C@H]1O[C@@H](n2cnc3c(N)ncnc32)[C@H](O)[C@@H]1OP(=O)(O)O)[C@@H](O)C(=O)NCCC(=O)NCCSC(=O)CCC(=O)O; assay: NADPH consumption, spectrophotometric; settings: NADPH 0.5 mM, MgCl2 5 mM, DTT 4 mM, pH 6.5, 65°C
purified protein = substrate: O=CCCC(=O)O; assay: purified protein; settings: NADPH 0.5 mM, MgCl2 5 mM, DTT 5 mM, pH 6.5, 65°C

B1: MCR, malonyl-CoA/succinyl-CoA reductase (Metallosphaera sedula DSM 5348) (protein)
chain: MRRTLKAAILGATGLVGIEYVRMLADHPYIKPTYLAGKGSVGKPYGEIVRWQTVGNVPKEVANQEVKPTDPKLMDDVDIIFSPLPQGAAGPVEEQFAKLGFNVISNSPDHRFDMDVPMIIPEVNPHTVTLIDEQRKRRDWKGFIVTTPLCTAQGAAIPLTPIYQNFKMSGVMITTMQSLSGAGYPGIASLDIVDNALPLGDGYDAKTVKEITRILSEVKRNVQEPGVNEITLDATTHRIATIHGHYEVAYVTFKEDTDVRKVMESMESFKGEPQDLKLPTAPEKPIIVTTQDARPQVFFDRWAGNPPGMSVVVGRLKQVNPRTIRFVSLIHNTVRGAAGGGVLTAELLVEKGYIDKR
Question: Which Km [1] does the source give for B1 here?
Answer: 79.2 µM

Question: And the Vmax [1]?
Answer: 13.1 µmol/min/mg

Question: And the kcat/Km [1]?
Answer: 109000 M⁻¹ s⁻¹

Question: What about the Km [2] of the same protein?
Answer: 191 µM

Question: And the Vmax [2]?
Answer: 15.9 µmol/min/mg

Question: And the kcat/Km [2]?
Answer: 54500 M⁻¹ s⁻¹

B2: SSR, succinic semialdehyde reductase (Metallosphaera sedula DSM 5348) (protein)
chain: MKAAVLHTYKEPLSIEDVNISQPKAGEVKIKVKATGLCHSDVNVFEGKTPVPPPVVAGHEISGIVEEVGPGVTRVKPGDRVISAFIHPCGKCGNCVAGKENLCETFSQVRLKGVMPDGTSRLSKDGKEIRTFLGGGFAEYAIVGENALTRVPEDMDLEKVAVLGCAGLTGYGAISSSKIEPGDTVAVIGVGGVGLSTIQLLRASGAGRIIAVGTKKWKLDRAMELGATDVVNSKEIDPVKAIKEITGGGPQVVIEAGGNEDTIHMALDSVRIGGKVVLVGLPPATAMIPIRVASIVRGGIEVVGNYGGRPRVDMPKLLELVRQGRYDPSRLVTGRFRLEEINEAVKMLEEGEAIRSLIIP
Question: Which results are given for B2?
Answer: Km (purified protein): 27 µM; Vmax (purified protein): 683 µmol/min/mg; kcat/Km (purified protein): 1.6e+07 M⁻¹ s⁻¹
